According to article PMC4399878, “Probing the Run-On Oligomer of Activated SgrAI Bound to DNA”:

Assays:
SgrAI wild type [1] = biological target: T1, SgrAI wild type (UniProt Q9F6L0 1-339); experiment: fluorescence anisotropy; 10 mM Ca2+; 20 mM Tris-HOAc pH 8.0 (RT), 50 mM KOAc, 10 mM Ca(OAc)2 (or Mg(OAc)2), 1 mM DTT, 4 C for anisotropy and gel run; 10% glycerol for EMSA and R131A/R134A, none for wild type with 40-mers; details: protein: recombinant, tags: none (untagged wild type; a C-terminal 6xHis version was also made), chain copies: 2
T1 sequence: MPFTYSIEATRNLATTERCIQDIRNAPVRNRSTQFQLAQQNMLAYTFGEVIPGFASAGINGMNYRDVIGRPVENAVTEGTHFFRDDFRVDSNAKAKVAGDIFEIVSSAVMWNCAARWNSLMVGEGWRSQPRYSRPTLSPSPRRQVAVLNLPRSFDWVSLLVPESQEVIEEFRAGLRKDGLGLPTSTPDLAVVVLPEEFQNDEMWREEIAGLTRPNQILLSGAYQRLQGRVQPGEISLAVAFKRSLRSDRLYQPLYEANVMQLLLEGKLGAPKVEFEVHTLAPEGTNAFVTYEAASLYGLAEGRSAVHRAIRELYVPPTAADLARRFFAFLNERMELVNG

SgrAI wild type [2] = biological target: T1, SgrAI wild type; experiment: fluorescence anisotropy; 10 mM Mg2+; 20 mM Tris-HOAc pH 8.0 (RT), 50 mM KOAc, 10 mM Ca(OAc)2 (or Mg(OAc)2), 1 mM DTT, 4 C for anisotropy and gel run; 10% glycerol for EMSA and R131A/R134A, none for wild type with 40-mers; details: protein: recombinant; tags: none (untagged wild type; a C-terminal 6xHis version was also made); chain copies: 2; label: 5' Hex (Methods)
SgrAI A57E = biological target: T2, SgrAI A57E (UniProt Q9F6L0 1-339, A57E); experiment: EMSA; 10 mM Ca2+; 20 mM Tris-HOAc pH 8.0 (RT), 50 mM KOAc, 10 mM Ca(OAc)2 (or Mg(OAc)2), 1 mM DTT, 4 C for anisotropy and gel run; 10% glycerol for EMSA and R131A/R134A, none for wild type with 40-mers; details: protein: recombinant; chain copies: 2; label: 5' 32P (S56E, A57E) or 5' fluorescein on top strand (R131A, R134A)
T2 sequence: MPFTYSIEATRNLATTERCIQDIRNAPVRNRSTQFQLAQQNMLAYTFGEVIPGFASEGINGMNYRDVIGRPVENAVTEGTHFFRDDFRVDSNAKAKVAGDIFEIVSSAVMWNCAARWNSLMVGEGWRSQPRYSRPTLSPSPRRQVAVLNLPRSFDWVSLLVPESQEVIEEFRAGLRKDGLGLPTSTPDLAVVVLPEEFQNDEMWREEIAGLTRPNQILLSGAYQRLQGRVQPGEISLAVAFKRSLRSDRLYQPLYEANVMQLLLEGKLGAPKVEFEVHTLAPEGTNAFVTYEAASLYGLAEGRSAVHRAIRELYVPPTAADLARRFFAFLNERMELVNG

SgrAI S56E = biological target: T3, SgrAI S56E (UniProt Q9F6L0 1-339, S56E); experiment: as above; details: protein: recombinant; chain copies: 2; label: 5' 32P (S56E, A57E) or 5' fluorescein on top strand (R131A, R134A)
T3 sequence: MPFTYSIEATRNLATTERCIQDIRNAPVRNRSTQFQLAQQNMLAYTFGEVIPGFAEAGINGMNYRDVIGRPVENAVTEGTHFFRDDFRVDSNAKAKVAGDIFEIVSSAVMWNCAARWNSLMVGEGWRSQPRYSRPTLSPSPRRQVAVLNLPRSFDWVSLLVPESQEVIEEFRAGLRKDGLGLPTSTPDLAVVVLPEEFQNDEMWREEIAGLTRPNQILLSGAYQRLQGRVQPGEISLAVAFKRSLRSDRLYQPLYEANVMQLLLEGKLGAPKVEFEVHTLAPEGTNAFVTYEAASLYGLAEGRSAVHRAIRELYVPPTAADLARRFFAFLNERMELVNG

SgrAI R131A = biological target: T4, SgrAI R131A (UniProt Q9F6L0 1-339, R131A); experiment: fluorescence anisotropy; 10 mM Ca2+; 20 mM Tris-HOAc pH 8.0 (RT), 50 mM KOAc, 10 mM Ca(OAc)2 (or Mg(OAc)2), 1 mM DTT, 4 C for anisotropy and gel run; 10% glycerol for EMSA and R131A/R134A, none for wild type with 40-mers; details: protein: recombinant; chain copies: 2; label: 5' 32P (S56E, A57E) or 5' fluorescein on top strand (R131A, R134A)
T4 sequence: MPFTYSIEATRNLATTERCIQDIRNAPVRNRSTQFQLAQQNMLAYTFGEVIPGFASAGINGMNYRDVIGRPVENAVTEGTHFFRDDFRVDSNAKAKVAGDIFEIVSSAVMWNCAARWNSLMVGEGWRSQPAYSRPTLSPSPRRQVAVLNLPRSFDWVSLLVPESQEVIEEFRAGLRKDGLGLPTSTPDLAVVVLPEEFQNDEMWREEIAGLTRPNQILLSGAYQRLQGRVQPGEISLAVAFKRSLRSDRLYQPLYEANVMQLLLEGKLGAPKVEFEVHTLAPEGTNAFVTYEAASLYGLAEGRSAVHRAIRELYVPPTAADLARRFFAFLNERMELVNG

SgrAI R134A = biological target: T5, SgrAI R134A (UniProt Q9F6L0 1-339, R134A); experiment: as above; details: protein: recombinant; chain copies: 2; label: 5' 32P (S56E, A57E) or 5' fluorescein on top strand (R131A, R134A)
T5 sequence: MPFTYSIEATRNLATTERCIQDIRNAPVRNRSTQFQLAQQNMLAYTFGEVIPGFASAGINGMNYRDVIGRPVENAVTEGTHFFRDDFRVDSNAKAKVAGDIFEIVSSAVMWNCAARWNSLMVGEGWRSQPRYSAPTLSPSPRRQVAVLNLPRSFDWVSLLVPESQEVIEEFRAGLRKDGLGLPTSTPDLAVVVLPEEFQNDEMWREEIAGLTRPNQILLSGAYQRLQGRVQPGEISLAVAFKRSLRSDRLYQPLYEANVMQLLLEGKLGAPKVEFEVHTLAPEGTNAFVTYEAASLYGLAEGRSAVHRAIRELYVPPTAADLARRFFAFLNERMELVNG

[3] = label: 5' fluorescein on top strand

B1: 40-2A (dsDNA)
DNA 1: GATGCGTGGGTCTTCACACCGGGGGTCTGCTCAAAATGAG
DNA 2: CTCATTTTGAGCAGACCCCCGGTGTGAAGACCCACGCATC
Kd (SgrAI wild type [1]; [3]): 27 ± 2 nM

B2: 40-2B (dsDNA)
DNA 1: GATGCGTGGGTCTTCACACCGGTCGTCTGCTCAAAATGAG
DNA 2: CTCATTTTGAGCAGACGACCGGTGTGAAGACCCACGCATC
Kd (SgrAI wild type [1]; [3]): 17 ± 3 nM

B3: 40-NCTA (40-NC-TA) (dsDNA)
DNA 1: GATGCGTGGGTCTTCACTCCGGAGGTCTGCTCAAAATGAG
DNA 2: CTCATTTTGAGCAGACCTCCGGAGTGAAGACCCACGCATC
Kd (SgrAI wild type [1]; label: 5' Hex (Methods)): 0.5 ± 0.1 nM | Kd (SgrAI wild type [2]): 2.8 ± 0.5 nM

B4: PC DNA (dsDNA)
DNA 1: GATGCGTGGGTCTTCACA
DNA 2: CCGGTGTGAAGACCCACGCATC
Kd (SgrAI A57E): 5 ± 2 nM | Kd (SgrAI S56E): 0.26 ± 0.02 nM | Kd (SgrAI R131A): 60 ± 20 nM | Kd (SgrAI R134A): 13 ± 6 nM
